Measurements from paper PMC4013091, “Stabilization and Augmentation of Circulating AIM in Mice by Synthesized IgM-Fc” (PLoS ONE, 2014).
Where “and” joins values, the source holds several entries; their conditions need not be identical. Equal values may be shown once.

Tests used:
[1] = target: FL-hFc, human IgM-Fc with a FLAG tag on the N-terminus of the CH2 domain (human); assay: non-reducing SDS-PAGE and western blot; culture supernatant of HEK293T cells transfected with pCAGGS-FL-hFc only, without IgJ
[2] = target: FL-hFc, human IgM-Fc with a FLAG tag on the N-terminus of the CH2 domain (human); assay: non-reducing SDS-PAGE and western blot; culture supernatant of HEK293T cells co-transfected with FL-hFc and IgJ-Myc; blotted with anti-FLAG and anti-Myc antibodies
[3] = target: human IgM-Fc pentamer (FL-hFc) combined with IgJ-Myc (human) (UniProt P01591)
[4] = target: human IgM-Fc pentamer (FL-hFc) combined with IgJ-Myc (human) (UniProt P01591); remark: listed apart in the source
[5] = target: human IgM-Fc pentamer (FL-hFc) combined with IgJ-Myc (human) (UniProt P01591); assay: sequential immunoaffinity co-purification; supernatant of co-cultured HEK 293T cells (hAIM-HA cells with FL-hFc and IgJ-Myc cells); anti-hAIM monoclonal antibody column, then anti-FLAG column; fractions blotted with anti-HA and anti-FLAG
[6] = target: T1, human recombinant AIM (apoptosis inhibitor of macrophage) (human, UniProt O43866 20-347); assay: SPR; Biacore 3000, 25°C; human rAIM covalently immobilised (2800 RU) on a CM5 chip; IgM-Fc monomer injected in 10 mM HEPES pH 7.4, 150 mM NaCl, 3 mM EDTA, 0.05% Tween-20 at 20 µL/min; 1:1 Langmuir model; apparent affinity; details: both partners purified
T1 construct: also called human rAIM; rAIM; source: purified recombinant
T1 sequence (looked up): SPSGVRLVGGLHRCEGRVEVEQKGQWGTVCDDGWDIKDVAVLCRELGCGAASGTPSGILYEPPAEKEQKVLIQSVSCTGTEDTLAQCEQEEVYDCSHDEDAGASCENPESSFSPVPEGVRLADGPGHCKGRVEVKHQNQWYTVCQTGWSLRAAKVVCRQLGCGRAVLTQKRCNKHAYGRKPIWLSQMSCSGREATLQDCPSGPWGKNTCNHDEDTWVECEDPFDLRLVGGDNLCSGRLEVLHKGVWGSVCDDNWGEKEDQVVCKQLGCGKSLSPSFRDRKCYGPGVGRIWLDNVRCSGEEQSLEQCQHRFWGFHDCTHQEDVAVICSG

Sequence of human IgM-Fc pentamer (FL-hFc) combined with IgJ-Myc (human) (P01591 whole entry): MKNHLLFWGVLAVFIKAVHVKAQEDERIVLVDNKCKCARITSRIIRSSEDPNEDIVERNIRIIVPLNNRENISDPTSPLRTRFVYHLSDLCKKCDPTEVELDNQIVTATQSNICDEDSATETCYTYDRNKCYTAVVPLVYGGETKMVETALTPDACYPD

FL-hFc, human IgM-Fc with a FLAG tag on the N-terminus of the CH2 domain (domain or fragment)
stoichiometry N [1]: 5 and 6
stoichiometry N [2]: 5

B1: endogenous mouse AIM in serum (natural protein)
chain: ESPTKVQLVGGAHRCEGRVEVEHNGQWGTVCDDGWDRRDVAVVCRELNCGAVIQTPRGASYQPPASEQRVLIQGVDCNGTEDTLAQCELNYDVFDCSHEEDAGAQCENPDSDLLFIPEDVRLVDGPGHCQGRVEVLHQSQWSTVCKAGWNLQVSKVVCRQLGCGRALLTYGSCNKNTQGKGPIWMGKMSCSGQEANLRSCLLSRLENNCTHGEDTWMECEDPFELKLVGGDTPCSGRLEVLHKGSWGSVCDDNWGEKEDQVVCKQLGCGKSLHPSPKTRKIYGPGAGRIWLDDVNCSGKEQSLEFCRHRLWGYHDCTHKEDVEVICTDFDV
circulating mouse AIM level in Δsμ mice 24 h after i.v. injection of 1 mg FL-hFc, as percent of that in the wild-type mouse (immunoblot of serum) [3]: 35%

B2: HA-tagged human AIM (natural protein)
chain: T1 sequence (looked up)
half-life of hAIM in the blood of wild-type mice after i.v. injection of 100 µg hFc-AIM complex (less than 2 h for hAIM alone) [4]: 12 h
mass of hAIM in 100 µg of the purified hFc-AIM complex [5]: 20 µg

B3: monomeric human IgM-Fc (CH2-CH3-CH4) with a C-terminal Myc tag (domain or fragment)
chain: IAELPPKVSVFVPPRDGFFGNPRKSKLICQATGFSPRQIQVSWLREGKQVGSGVTTDQVQAEAKESGPTTYKVTSTLTIKESDWLGQSMFTCRVDHRGLTFQQNASSMCVPDQDTAIRVFAIPPSFASIFLTKSTKLTCLVTDLTTYDSVTISWTRQNGEAVKTHTNISESHPNATFSAVGEASICEDDWNSGERFTCTVTHTDLPSPLKQTISRPKGVALHRPDVYLLPPAREQLNLRESATITCLVTGFSPADVFVQWMQRGQPLSPEKYVTSAPMPEPQAPGRYFAHSILTVSEEEWNTGETYTCVVAHEALPNRVTERTVDKSTGKPTLYNVSLVMSDTAGTCY
modifications: Disulfide-linked dimer of the mu Fc chain (~100-110 kDa), N-glycosylated (HEK293T). C-terminal Myc tag, which blocks pentamer formation, omitted. Limits not printed: CH2 start by domain convention. …
Kd [6]: 153 nM
koff [6]: 0.00315 s⁻¹
kon [6]: 20500 M⁻¹ s⁻¹
